The values below come from article PMC3066550.

Holding throughout (test): co-IP
Assay [1] concerns the target LANADBD HIF876AAA (Kaposi's sarcoma-associated herpesvirus (KSHV; human herpesvirus 8)).
Assay [2] deals with LANADBD K871A (Kaposi's sarcoma-associated herpesvirus (KSHV; human herpesvirus 8)).
Assay [3] concerns the target LANADBD KDT950AAA (Kaposi's sarcoma-associated herpesvirus (KSHV; human herpesvirus 8)).
For assay [4], the target named is LANADBD LSQ912AAA (Kaposi's sarcoma-associated herpesvirus (KSHV; human herpesvirus 8)).
In assay [5] the target is LANADBD R873A (Kaposi's sarcoma-associated herpesvirus (KSHV; human herpesvirus 8)).
The target in assay [6] is LANADBD SKK953AAA (Kaposi's sarcoma-associated herpesvirus (KSHV; human herpesvirus 8)).
In assay [7] the target is LANADBD WE963AA (Kaposi's sarcoma-associated herpesvirus (KSHV; human herpesvirus 8)).
The target in assay [8] is LANADBD YGL907AAA (Kaposi's sarcoma-associated herpesvirus (KSHV; human herpesvirus 8)).
In assay [9] the target is LANADBD YR879AA (Kaposi's sarcoma-associated herpesvirus (KSHV; human herpesvirus 8)).

For “wild-type KSHV LANA DNA-binding domain (LANADBD, aa 775-1003) (domain or fragment)”, the dimerization activity by IP, percent of wt in assay [1] was 127 % of wt; in assay [2], 74 % of wt; in assay [3] it was 74 % of wt; in assay [4], 248 % of wt; in assay [5], 135 % of wt; in assay [6], 64 % of wt. The dimerization activity by IP, percent of wt was 29 % of wt in assay [7], 73 % of wt in [8] and 73 % of wt in assay [9].
